Measured values as given in patent US12043670B2, “Anti-BCMA antibody-drug conjugates and methods of use” (Eisai R&D Management Co., Ltd., priority 2020, dated 2024).

Experiment: ThermoFluor thermostability (Tm)
Format: physicochemical
[1] = Light chain screening Round 2, Fab, paired with heavy chain AB200_R1_VH26
[2] = Fab fragment, light chain clone paired with heavy chain AB200_R1_VH32

B1: AB200-R1H26-R2Vk48 (antibody)
heavy: QVQLVQSGAEVKKPGSSVKVSCKASGGSFSNYWMHWVRQAPGQGLEWMGATYRIHSDTFYNQKFKGRVTITADKSTSTAYMELSSLRSEDTAVYYCARGAIYHGYDVLDNWGQGTLVTVSSASTKGPSVFPLAPSSKSTSGGTAALGCLVKDYFPEPVTVSWNSGALTSGVHTFPAVLQSSGLYSLSSVVTVPSSSLGTQTYICNVNHKPSNTKVDKKVEPKSC
light: DIQMTQSPSSLSASVGDRVTITCRASQSISSYINWYQQKPGKAPKLLIYATSNLQIGVPSRFSGSGSGTDFTLTISSLQPEDFATYYCQQFRKIPWTFGQGTKLEIKRTVAAPSVFIFPPSDEQLKSGTASVVCLLNNFYPREAKVQWKVDNALQSGNSQESVTEQDSKDSTYSLSSTLTLSKADYEKHKVYACEVTHQGLSSPVTKSFNRGEC
- Tm [1]: 83.862 °C

B2: AB200-R1H32-R2Vk39 (antibody)
heavy: QVQLVQSGAEVKKPGSSVKVSCKASGGTFSNYWMHWVRQAPGQGLEWMGATYRSHSDTYYNQKFKSRVTITADKSTSTAYMELSSLRSEDTAVYYCARGAIYHGYDVIDNWGQGTLVTVSSASTKGPSVFPLAPSSKSTSGGTAALGCLVKDYFPEPVTVSWNSGALTSGVHTFPAVLQSSGLYSLSSVVTVPSSSLGTQTYICNVNHKPSNTKVDKKVEPKSC
light: DIQMTQSPSSLSASVGDRVTITCRASQSISSYINWYQQKPGKAPKLLIYATSNIQSGVPSRFSGSGSGTDFTLTISSLQPEDFATYYCQQYRRLPWSFGQGTKLEIKRTVAAPSVFIFPPSDEQLKSGTASVVCLLNNFYPREAKVQWKVDNALQSGNSQESVTEQDSKDSTYSLSSTLTLSKADYEKHKVYACEVTHQGLSSPVTKSFNRGEC
- Tm [2]: 76.077 °C

B3: AB200-R1H26-R2Vk7 (antibody)
heavy: QVQLVQSGAEVKKPGSSVKVSCKASGGSFSNYWMHWVRQAPGQGLEWMGATYRIHSDTFYNQKFKGRVTITADKSTSTAYMELSSLRSEDTAVYYCARGAIYHGYDVLDNWGQGTLVTVSSASTKGPSVFPLAPSSKSTSGGTAALGCLVKDYFPEPVTVSWNSGALTSGVHTFPAVLQSSGLYSLSSVVTVPSSSLGTQTYICNVNHKPSNTKVDKKVEPKSC
light: DIQMTQSPSSLSASVGDRVTITCRASQSISSYINWYQQKPGKAPKLLIYATSNIQSGVPSRFSGSGSGTDFTLTISSLQPEDFATYYCQQFRKLPWSFGQGTKLEIKRTVAAPSVFIFPPSDEQLKSGTASVVCLLNNFYPREAKVQWKVDNALQSGNSQESVTEQDSKDSTYSLSSTLTLSKADYEKHKVYACEVTHQGLSSPVTKSFNRGEC
- Tm [1]: 81.764 °C

B4: AB200-R1H26-R2Vk6 (antibody)
heavy: QVQLVQSGAEVKKPGSSVKVSCKASGGSFSNYWMHWVRQAPGQGLEWMGATYRIHSDTFYNQKFKGRVTITADKSTSTAYMELSSLRSEDTAVYYCARGAIYHGYDVLDNWGQGTLVTVSSASTKGPSVFPLAPSSKSTSGGTAALGCLVKDYFPEPVTVSWNSGALTSGVHTFPAVLQSSGLYSLSSVVTVPSSSLGTQTYICNVNHKPSNTKVDKKVEPKSC
light: DIQMTQSPSSLSASVGDRVTITCRASQSISSYINWYQQKPGKAPKLLIYATSNLQSGVPSRFSGSGSGTDFTLTISSLQPEDFATYYCQQFRKLPWSFGQGTKLEIKRTVAAPSVFIFPPSDEQLKSGTASVVCLLNNFYPREAKVQWKVDNALQSGNSQESVTEQDSKDSTYSLSSTLTLSKADYEKHKVYACEVTHQGLSSPVTKSFNRGEC
- Tm [1]: 82.640 °C

B5: AB200-R1H26-R2Vk8 (antibody)
heavy: QVQLVQSGAEVKKPGSSVKVSCKASGGSFSNYWMHWVRQAPGQGLEWMGATYRIHSDTFYNQKFKGRVTITADKSTSTAYMELSSLRSEDTAVYYCARGAIYHGYDVLDNWGQGTLVTVSSASTKGPSVFPLAPSSKSTSGGTAALGCLVKDYFPEPVTVSWNSGALTSGVHTFPAVLQSSGLYSLSSVVTVPSSSLGTQTYICNVNHKPSNTKVDKKVEPKSC
light: DIQMTQSPSSLSASVGDRVTITCRASQSISSYINWYQQKPGKAPKLLIYATSNLQIGVPSRFSGSGSGTDFTLTISSLQPEDFATYYCQQFRKLPWSFGQGTKLEIKRTVAAPSVFIFPPSDEQLKSGTASVVCLLNNFYPREAKVQWKVDNALQSGNSQESVTEQDSKDSTYSLSSTLTLSKADYEKHKVYACEVTHQGLSSPVTKSFNRGEC
- Tm [1]: 82.921 °C

B6: AB200-R1H32-R2Vk37 (antibody)
heavy: QVQLVQSGAEVKKPGSSVKVSCKASGGTFSNYWMHWVRQAPGQGLEWMGATYRSHSDTYYNQKFKSRVTITADKSTSTAYMELSSLRSEDTAVYYCARGAIYHGYDVIDNWGQGTLVTVSSASTKGPSVFPLAPSSKSTSGGTAALGCLVKDYFPEPVTVSWNSGALTSGVHTFPAVLQSSGLYSLSSVVTVPSSSLGTQTYICNVNHKPSNTKVDKKVEPKSC
light: DIQMTQSPSSLSASVGDRVTITCRASQSISSYINWYQQKPGKAPKLLIYATSNLQSGVPSRFSGSGSGTDFTLTISSLQPEDFATYYCQQYRKIPWSFGQGTKLEIKRTVAAPSVFIFPPSDEQLKSGTASVVCLLNNFYPREAKVQWKVDNALQSGNSQESVTEQDSKDSTYSLSSTLTLSKADYEKHKVYACEVTHQGLSSPVTKSFNRGEC
- Tm [2]: 76.708 °C

B7: AB200-R1H32-R2Vk18 (antibody)
heavy: QVQLVQSGAEVKKPGSSVKVSCKASGGTFSNYWMHWVRQAPGQGLEWMGATYRSHSDTYYNQKFKSRVTITADKSTSTAYMELSSLRSEDTAVYYCARGAIYHGYDVIDNWGQGTLVTVSSASTKGPSVFPLAPSSKSTSGGTAALGCLVKDYFPEPVTVSWNSGALTSGVHTFPAVLQSSGLYSLSSVVTVPSSSLGTQTYICNVNHKPSNTKVDKKVEPKSC
light: DIQMTQSPSSLSASVGDRVTITCRASQSISSYINWYQQKPGKAPKLLIYAASSLQSGVPSRFSGSGSGTDFTLTISSLQPEDFATYYCQQFRKIPWTFGQGTKLEIKRTVAAPSVFIFPPSDEQLKSGTASVVCLLNNFYPREAKVQWKVDNALQSGNSQESVTEQDSKDSTYSLSSTLTLSKADYEKHKVYACEVTHQGLSSPVTKSFNRGEC
- Tm [2]: 79.872 °C

B8: AB200-R1H32-R2Vk38 (antibody)
heavy: QVQLVQSGAEVKKPGSSVKVSCKASGGTFSNYWMHWVRQAPGQGLEWMGATYRSHSDTYYNQKFKSRVTITADKSTSTAYMELSSLRSEDTAVYYCARGAIYHGYDVIDNWGQGTLVTVSSASTKGPSVFPLAPSSKSTSGGTAALGCLVKDYFPEPVTVSWNSGALTSGVHTFPAVLQSSGLYSLSSVVTVPSSSLGTQTYICNVNHKPSNTKVDKKVEPKSC
light: DIQMTQSPSSLSASVGDRVTITCRASQSISSYINWYQQKPGKAPKLLIYATSNLQSGVPSRFSGSGSGTDFTLTISSLQPEDFATYYCQQFRKIPWTFGQGTKLEIKRTVAAPSVFIFPPSDEQLKSGTASVVCLLNNFYPREAKVQWKVDNALQSGNSQESVTEQDSKDSTYSLSSTLTLSKADYEKHKVYACEVTHQGLSSPVTKSFNRGEC
- Tm [2]: 80.727 °C

B9: AB200-R1H26-R2Vk17 (antibody)
heavy: QVQLVQSGAEVKKPGSSVKVSCKASGGSFSNYWMHWVRQAPGQGLEWMGATYRIHSDTFYNQKFKGRVTITADKSTSTAYMELSSLRSEDTAVYYCARGAIYHGYDVLDNWGQGTLVTVSSASTKGPSVFPLAPSSKSTSGGTAALGCLVKDYFPEPVTVSWNSGALTSGVHTFPAVLQSSGLYSLSSVVTVPSSSLGTQTYICNVNHKPSNTKVDKKVEPKSC
light: DIQMTQSPSSLSASVGDRVTITCRASQSISSYINWYQQKPGKAPKLLIYAASSLQSGVPSRFSGSGSGTDFTLTISSLQPEDFATYYCQQYRKIPWSFGQGTKLEIKRTVAAPSVFIFPPSDEQLKSGTASVVCLLNNFYPREAKVQWKVDNALQSGNSQESVTEQDSKDSTYSLSSTLTLSKADYEKHKVYACEVTHQGLSSPVTKSFNRGEC
- Tm [1]: 78.993 °C

B10: AB200-R1H32-R2Vk27 (antibody)
heavy: QVQLVQSGAEVKKPGSSVKVSCKASGGTFSNYWMHWVRQAPGQGLEWMGATYRSHSDTYYNQKFKSRVTITADKSTSTAYMELSSLRSEDTAVYYCARGAIYHGYDVIDNWGQGTLVTVSSASTKGPSVFPLAPSSKSTSGGTAALGCLVKDYFPEPVTVSWNSGALTSGVHTFPAVLQSSGLYSLSSVVTVPSSSLGTQTYICNVNHKPSNTKVDKKVEPKSC
light: DIQMTQSPSSLSASVGDRVTITCRASQSISSYLNWYQQKPGKAPKLLIYATSNIQSGVPSRFSGSGSGTDFTLTISSLQPEDFATYYCQQYRKIPWSFGQGTKLEIKRTVAAPSVFIFPPSDEQLKSGTASVVCLLNNFYPREAKVQWKVDNALQSGNSQESVTEQDSKDSTYSLSSTLTLSKADYEKHKVYACEVTHQGLSSPVTKSFNRGEC
- Tm [2]: 76.729 °C

B11: AB200-R1H26-R2Vk4 (antibody)
heavy: QVQLVQSGAEVKKPGSSVKVSCKASGGSFSNYWMHWVRQAPGQGLEWMGATYRIHSDTFYNQKFKGRVTITADKSTSTAYMELSSLRSEDTAVYYCARGAIYHGYDVLDNWGQGTLVTVSSASTKGPSVFPLAPSSKSTSGGTAALGCLVKDYFPEPVTVSWNSGALTSGVHTFPAVLQSSGLYSLSSVVTVPSSSLGTQTYICNVNHKPSNTKVDKKVEPKSC
light: DIQMTQSPSSLSASVGDRVTITCRASQSISSYLNWYQQKPGKAPKLLIYATSNIQSGVPSRFSGSGSGTDFTLTISSLQPEDFATYYCQQFRKLPWSFGQGTKLEIKRTVAAPSVFIFPPSDEQLKSGTASVVCLLNNFYPREAKVQWKVDNALQSGNSQESVTEQDSKDSTYSLSSTLTLSKADYEKHKVYACEVTHQGLSSPVTKSFNRGEC
- Tm [1]: 81.832 °C

B12: AB200-R1H32-R2Vk28 (antibody)
heavy: QVQLVQSGAEVKKPGSSVKVSCKASGGTFSNYWMHWVRQAPGQGLEWMGATYRSHSDTYYNQKFKSRVTITADKSTSTAYMELSSLRSEDTAVYYCARGAIYHGYDVIDNWGQGTLVTVSSASTKGPSVFPLAPSSKSTSGGTAALGCLVKDYFPEPVTVSWNSGALTSGVHTFPAVLQSSGLYSLSSVVTVPSSSLGTQTYICNVNHKPSNTKVDKKVEPKSC
light: DIQMTQSPSSLSASVGDRVTITCRASQSISSYLNWYQQKPGKAPKLLIYATSNIQSGVPSRFSGSGSGTDFTLTISSLQPEDFATYYCQQFRKIPWTFGQGTKLEIKRTVAAPSVFIFPPSDEQLKSGTASVVCLLNNFYPREAKVQWKVDNALQSGNSQESVTEQDSKDSTYSLSSTLTLSKADYEKHKVYACEVTHQGLSSPVTKSFNRGEC
- Tm [2]: 79.945 °C
